From patent US20250011423A1 (ASCENDO BIOTECHNOLOGY, published 2025)
Positions count from the first letter of the chain named.

T1: mouse TREML1 ECD (mouse, UniProt Q8K558 21-175)
T1 construct: also called murine TREML1 ECD
T1 sequence: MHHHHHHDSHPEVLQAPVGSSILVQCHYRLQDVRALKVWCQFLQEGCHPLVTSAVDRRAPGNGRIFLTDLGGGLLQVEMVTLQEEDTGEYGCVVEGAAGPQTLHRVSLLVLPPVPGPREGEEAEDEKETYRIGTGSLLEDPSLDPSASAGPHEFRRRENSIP

T2: human TREML1 ECD (human, UniProt Q86YW5 16-162)
T2 construct: Any tags are not described; also called soluble TREML1; soluble TLT1
T2 sequence: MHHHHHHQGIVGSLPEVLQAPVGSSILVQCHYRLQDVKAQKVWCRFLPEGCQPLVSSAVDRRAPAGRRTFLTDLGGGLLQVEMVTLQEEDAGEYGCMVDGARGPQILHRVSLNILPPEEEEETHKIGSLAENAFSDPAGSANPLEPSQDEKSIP

B1: Anti-TREML1 Antibody Clone 26A6 (antibody, V domains shown)
VH: EVKLVESGGGLVQPGGSRKLSCAASGFTFSDYGMAWVRQAPGKGPEWIAFISNLAYRIYYADTVTGRFTISRENAKNTLYLEMSSLRSEDSAIYYCVREDYGNNGAMDYWGQGTSVTVSS
VL: DVLMTQTPLSLPVSLGDQASISCRSSQSIVHSNGNTYLEWYLQKPGQSPKLLIYKVSNRFSGVPDRFSGSGSGTDFTLKISRVEAEDLGVYYCFQGSHVPPTFGGGTKLEIK
notes: It was detected with anti-mouse IgG, so it is a mouse antibody
B2: Anti-TREML1 Antibody Clone 28A9 (antibody, V domains shown)
VH: EVQLQQSGPELVKPGASVKMSCKASGYTFTNYVMHWVKQKPGQGLEWIGYFNPYNGHAKYSEKFTGKATLTSDRSSSTAYMELNSLTSEDSAVYYCTRDFNYYVGAMDYWGQGTSVTVSS
VL: DVVMTQSPLSLPVNLGDHASISCRSSQSLIHSNGNTYLHWYLQKPGQSPKLLVYQVSKRFSGVPDRFSGSGSGTDFTLKISRVEAEDLGVYFCSQSTHIWTFGGGTTLEIK
notes: It was detected with anti-mouse IgG
B3: Anti-TREML1 Antibody Clone 23F10 (antibody, V domains shown)
VH: EVQLQQSGPELVRPGASVKVSCKASGYIFTDYVIHWVKQKPGQGLEWFGYINPYTGGPKYSETARGKATLTSDSSSNTAYMVLTSLTSDDSAVYYCTRDFNYYVGAMDFWGQGTSVTVSS
VL: AAVLTQTPLSLPVSLGDQASISCRSTQSLVHSNGNTYVHWYLQKAGQSPKLLIYKVSNRFSGVPDRFSGSGSGTDFTLKISRVEAEDLGVYFCSQSTYVWTFGGGTKLEIE
notes: as for B2
B4: Anti-TREML1 Antibody Clone 29F4 (antibody, V domains shown)
VH: B3 VH with R65K, D89E
VL: B3 VL with A1G, R24K, S68I
notes: as for B2
B5: Anti-TREML1 Antibody Clone 18D8 (antibody, V domains shown)
VH: EVQVQQSGPELVNPGASVRLSCKASGYIFTDYVIHWVRQKPGQGLEWIGYMNPYTDGPKYSDKIKDKAILTSDRSSNTVYMELRSLTSEDSAVYFCARDFNYYVGAMDFWGQGTSVTVSS
VL: DVVLTQTPLSLPVSLGDQASVSCRSSQSLLHSNGNTYLHWYLQKPGQSPKLLIYKVSNRFSGVPDRFTGSGSGTDFTLKISRVEAEDLGVYFCSQSTHIWTFGGGTKLEIK
notes: as for B2
B6: Anti-TREML1 Antibody Clone 27D3 (antibody, V domains shown)
VH: DVQLQQSGPELVKPGASVKMSCKASGYTFTEYVIHWVKQRPGQGLEWFGYFNPYTGGSKFNEKFKDKATLTSDRSSNTVYMELYSLTSEDSAVYYCARDFNYYVGAMDYWGQGTSVTVSS
VL: B5 VL with V3A, V21I, L30V, P45S, T68S, G73V, D75E, T97S, K107R
notes: as for B2

Target: T1, mouse TREML1 ECD
Experiment: solid phase binding assay (ELISA), antigen coated
Description: (§1) To investigate the TREML1/I-domain of CD11 b interaction, 5 μg/ml of recombinant I-domain of CD11 b (SEQ ID: 1) and BSA (negative control) proteins were coated separately on 96 well plates and incubated overnight at 4° C. Plates were added the blocking buffer (2% BSA in PBS) to avoid the nonspecific binding for 2 hours (hrs) at room temperature. A serial diluted TREML1 ECD was added and allowed to incubate at room temperature for 2 hrs. 1ug/ml of anti-TREML1 antibody (MAB2394, R&D systems) was added for 1 hr. Next, the secondary antibody with HRP labeling, anti-Rat IgG-HRP, was added to the plate and incubated for 30 minutes at room temperature. Plates were washed thrice with 0.05% tween 20 PBS buffer (PBST) between each step. Finally, TMB substrate was added and incubated for 10-15 min to detect HRP labeling antibody. After that, a stop solution of 1N HCL was added to stop the reaction. Absorbance at OD450/540 nm was measured by a microplate reader. To measure the half-maximal saturation binding of anti-TREML1 antibodies to TREML1, 5 μg/ml of human TREML1 ECD (SEQ ID: 2) or mouse TREML1 ECD (SEQ ID: 3) were coated on 96 well plates and incubated overnight at 4° C. Plates were added the blocking buffer (2% BSA in PBS) to avoid the nonspecific binding for 2 hr at room temperature. A serial diluted anti-TREML1 antibody was added and allowed to incubate at room temperature for 2 hr. Next, the secondary antibody with HRP labeling, anti-mouse IgG-HRP, was added to the plate and incubated for 30 minutes at room temperature. Plates were washed three times with 0.05% tween20 PBS buffer (PBST) between each step. Finally, TMB substrate was added and incubated for 10-15 min to detect HRP labeling antibody. After that, a stop solution of 1N HCL was added to stop the reaction. Absorbance at OD450/540 nm was measured by a microplate reader.

Point of comparison: B3, EC50 0.82 nM. Against it:
- B1 — 2-fold lower, 0.4 nM
- B2 — 3-fold higher, 2.48 nM
- B4 — within 1.5-fold, 0.94 nM
- B5 — 41-fold higher, 33.4 nM
- B6 — 30-fold higher, 24.9 nM

Target: T2, human TREML1 ECD
Experiment: solid phase binding assay (ELISA), antigen coated
Description: as §1

Point of comparison: B5, EC50 0.25 nM. Against it:
- B1 — within 1.5-fold, 0.32 nM
- B2 — within 1.5-fold, 0.3 nM
- B3 — within 1.5-fold, 0.27 nM
- B4 — within 1.5-fold, 0.18 nM
- B6 — within 1.5-fold, 0.31 nM
